Measurements taken from article PMC9352680, “A comprehensive thermodynamic model for RNA binding by the Saccharomyces cerevisiae Pumilio protein PUF4”.
Where a chain is given by its changes, count along the chain named. In names and notes the source's numbering stands.

T1: PUF4 RNA-binding domain (Saccharomyces cerevisiae, UniProt P25339 537-888)
T1 sequence: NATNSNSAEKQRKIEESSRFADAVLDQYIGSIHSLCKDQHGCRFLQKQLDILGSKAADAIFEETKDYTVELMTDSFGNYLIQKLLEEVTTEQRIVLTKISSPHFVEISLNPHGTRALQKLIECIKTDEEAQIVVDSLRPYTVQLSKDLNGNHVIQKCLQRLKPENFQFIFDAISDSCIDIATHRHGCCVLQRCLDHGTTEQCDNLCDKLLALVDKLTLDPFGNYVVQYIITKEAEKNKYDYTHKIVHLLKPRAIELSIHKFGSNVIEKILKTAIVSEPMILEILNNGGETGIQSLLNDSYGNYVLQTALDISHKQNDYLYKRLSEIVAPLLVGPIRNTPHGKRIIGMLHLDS

B1: Ic_S2_P3E.1_K3.1_C3.1_H3.1_A3.1_[T5C]_[A6G]_F3.1_T3.1 (ssRNA)
RNA: UUUGAUUAAUAUGAUAUCGUUCUUUCUUGUACGUAUUCUUUCUCGAUAUCAUAUUAAUCUUU
B2: Ic_S2_P3E.1_K3.1_C3.1_H3.1_A3.1_[A6C]_F3.1_T3.1 (ssRNA)
RNA: B1 RNA with C32U, G33C
B3: Ib_S2_P3E.1_K3.1_C3.1_H3.1_A3.1_[T5C]_[A6T]_F3.1_T3.1 (ssRNA)
RNA: B1 RNA with G33U
B4: Ic_S2_P3E.1_K3.1_C3.1_H3.1_A3.1_[T5A]_[A6T]_F3.1_T3.1 (ssRNA)
RNA: B1 RNA with C32A, G33U
B5: Ic_S2_P3E.1_K3.1_C3.1_H3.1_A3.1_[T5C]_[A6C]_F3.1_T3.1 (ssRNA)
RNA: B1 RNA with G33C
B6: Ib_S2_P3E.1_K3.1_C3.1_H3.1_A3.1_[T5A]_[A6C]_F3.1_T3.1 (ssRNA)
RNA: B1 RNA with C32A, G33C
B7: Ic_S2_P3E.1_K3.1_C3.1_H3.1_A3.1_[A6T]_F3.1_T3.1 (ssRNA)
RNA: B1 RNA with C32U, G33U
B8: Ib_S2_P4E.1_K4.1_C4.1_H4.1_A4.1_F4.1_[T8G]_[A9G]_T4.1 (ssRNA)
RNA: UUUGAUUAAUAUGAUAUCGUUCUUUCUUGUAUAUGGUUCUUUCUCGAUAUCAUAUUAAUCUUU
B9: Ib_S2_P4E.1_K4.1_C4.1_H4.1_[G2A]_A4.1_F4.1_[A9G]_T4.1 (ssRNA)
RNA: B8 RNA with G29A, G35U
B10: Ib_S2_P4E.1_K4.1_C4.1_H4.1_[A4G]_A4.1_F4.1_[T8C]_T4.1 (ssRNA)
RNA: B8 RNA with A31G, G35C, G36A
B11: Ic_S2_P4E.1_K4.1_C4.1_H4.1_A4.1_F4.1_[T8G]_[A9T]_T4.1 (ssRNA)
RNA: B8 RNA with G36U
B12: Ic_S2_P4E.1_K4.1_C4.1_H4.1_A4.1_F4.1_[T8A]_T4.1 (ssRNA)
RNA: B8 RNA with G35A, G36A
B13: Ic_S2_P4E.1_K4.1_C4.1_H4.1_A4.1_[A6T]_F4.1_[T8C]_T4.1 (ssRNA)
RNA: B8 RNA with A33U, G35C, G36A
B14: Ib_S2_P4E.1_K4.1_C4.1_H4.1_[G2A]_A4.1_F4.1_[A9C]_T4.1 (ssRNA)
RNA: B8 RNA with G29A, G35U, G36C
B15: Ib_S2_P4E.1_K4.1_C4.1_H4.1_A4.1_[T5C]_F4.1_[T8A]_T4.1 (ssRNA)
RNA: B8 RNA with U32C, G35A, G36A
B16: Ib_S2_P4E.1_K4.1_C4.1_H4.1_[A4T]_A4.1_F4.1_[T8C]_T4.1 (ssRNA)
RNA: B8 RNA with A31U, G35C, G36A
B17: Ib_S2_P4E.1_K4.1_C4.1_H4.1_A4.1_[A6C]_F4.1_[T8A]_T4.1 (ssRNA)
RNA: B8 RNA with A33C, G35A, G36A
B18: Ib_S2_P4E.1_K4.1_C4.1_H4.1_[A4G]_A4.1_F4.1_[T8A]_T4.1 (ssRNA)
RNA: B8 RNA with A31G, G35A, G36A
B19: Ib_S2_P4E.1_K4.1_C4.1_H4.1_[T3C]_A4.1_F4.1_[A9C]_T4.1 (ssRNA)
RNA: B8 RNA with U30C, G35U, G36C
B20: Ia_S2_P4E.1_K4.1_C4.1_H4.1_A4.1_F4.1_[T8C]_T4.1 (ssRNA)
RNA: B8 RNA with G35C, G36A
B21: Ib_S2_P4E.1_K4.1_C4.1_H4.1_[T1C]_A4.1_F4.1_[T8A]_T4.1 (ssRNA)
RNA: B8 RNA with U28C, G35A, G36A
B22: Ib_S2_P4E.1_K4.1_C4.1_H4.1_[A4G]_A4.1_F4.1_[A9C]_T4.1 (ssRNA)
RNA: B8 RNA with A31G, G35U, G36C
B23: Ib_S2_P4E.1_K4.1_C4.1_H4.1_[G2T]_A4.1_F4.1_[A9T]_T4.1 (ssRNA)
RNA: B8 RNA with G29U, G35U, G36U
B24: Ic_S2_P4E.1_K4.1_C4.1_H4.1_A4.1_F4.1_[T8G]_[A9C]_T4.1 (ssRNA)
RNA: B8 RNA with G36C
B25: Ib_S2_P4E.1_K4.1_C4.1_H4.1_[A4G]_A4.1_F4.1_[A9T]_T4.1 (ssRNA)
RNA: B8 RNA with A31G, G35U, G36U
B26: Ib_S2_P4E.1_K4.1_C4.1_H4.1_[T1G]_A4.1_F4.1_[A9T]_T4.1 (ssRNA)
RNA: B8 RNA with U28G, G35U, G36U
B27: Ib_S2_P4E.1_K4.1_C4.1_H4.1_[T1C]_A4.1_F4.1_[A9C]_T4.1 (ssRNA)
RNA: B8 RNA with U28C, G35U, G36C
B28: Ib_S2_P4E.1_K4.1_C4.1_H4.1_[A4C]_A4.1_F4.1_[A9C]_T4.1 (ssRNA)
RNA: B8 RNA with A31C, G35U, G36C
B29: Ib_S2_P4E.1_K4.1_C4.1_H4.1_[G2T]_A4.1_F4.1_[A9G]_T4.1 (ssRNA)
RNA: B8 RNA with G29U, G35U
B30: Ib_S2_P4E.1_K4.1_C4.1_H4.1_[A4T]_A4.1_F4.1_[A9G]_T4.1 (ssRNA)
RNA: B8 RNA with A31U, G35U
B31: Ib_S2_P4E.1_K4.1_C4.1_H4.1_[A4T]_A4.1_F4.1_[T8A]_T4.1 (ssRNA)
RNA: B8 RNA with A31U, G35A, G36A
B32: Ib_S2_P4E.1_K4.1_C4.1_H4.1_A4.1_[A6C]_F4.1_[T8C]_T4.1 (ssRNA)
RNA: B8 RNA with A33C, G35C, G36A
B33: Ib_S2_P4E.1_K4.1_C4.1_H4.1_[A4C]_A4.1_F4.1_[T8C]_T4.1 (ssRNA)
RNA: B8 RNA with A31C, G35C, G36A
B34: Ib_S2_P4E.1_K4.1_C4.1_H4.1_[G2C]_A4.1_F4.1_[T8C]_T4.1 (ssRNA)
RNA: B8 RNA with G29C, G35C, G36A
B35: Ic_S2_P4E.1_K4.1_C4.1_H4.1_A4.1_F4.1_[T8C]_[A9G]_T4.1 (ssRNA)
RNA: B8 RNA with G35C
B36: Ib_S2_P4E.1_K4.1_C4.1_H4.1_[T3C]_A4.1_F4.1_[A9T]_T4.1 (ssRNA)
RNA: B8 RNA with U30C, G35U, G36U
B37: Ib_S2_P4E.1_K4.1_C4.1_H4.1_A4.1_[T5A]_F4.1_[T8A]_T4.1 (ssRNA)
RNA: B8 RNA with U32A, G35A, G36A
B38: Ib_S2_P4E.1_K4.1_C4.1_H4.1_A4.1_F4.1_[T8A]_[A9C]_T4.1 (ssRNA)
RNA: B8 RNA with G35A, G36C
B39: Ic_S2_P4E.1_K4.1_C4.1_H4.1_A4.1_F4.1_[T8C]_[A9C]_T4.1 (ssRNA)
RNA: B8 RNA with G35C, G36C
B40: Ib_S2_P4E.1_K4.1_C4.1_H4.1_A4.1_[T5A]_F4.1_[T8C]_T4.1 (ssRNA)
RNA: B8 RNA with U32A, G35C, G36A
B41: Ib_S2_P4E.1_K4.1_C4.1_H4.1_[G2C]_A4.1_F4.1_[A9T]_T4.1 (ssRNA)
RNA: B8 RNA with G29C, G35U, G36U
B42: Ib_S2_P4E.1_K4.1_C4.1_H4.1_[A4G]_A4.1_F4.1_[A9G]_T4.1 (ssRNA)
RNA: B8 RNA with A31G, G35U
B43: Ib_S2_P4E.1_K4.1_C4.1_H4.1_A4.1_F4.1_[T8A]_[A9G]_T4.1 (ssRNA)
RNA: B8 RNA with G35A
B44: Ib_S2_P4E.1_K4.1_C4.1_H4.1_[T1A]_A4.1_F4.1_[A9T]_T4.1 (ssRNA)
RNA: B8 RNA with U28A, G35U, G36U

target: T1, PUF4 RNA-binding domain; assay: Mg; RNA-MaP; 20 mM Na-HEPES pH 7.4, 30 mM KOAc, 0.75 mM MgCl2, 0.1% Tween-20, 5% glycerol, 0.1 mg/mL BSA, 2 mM DTT; 25 C; 0.0125-409.6 nM protein; conditions: tags: N-His6-TEV cleaved; C-SNAP kept, Cy3B-labelled; label: tethered on chip by stalled RNA polymerase

Binder	Kd
UCUCUUCGUAUAUAUCUCUU (ssRNA) [Ia_S1_P3E.1_K3.1_C3.1_H3.1_[T1C]_A3.1_F3.1_T3.1]	1180 nM
B1	33.1 nM
B2	8.48 nM
B3	14.8 nM
B4	72.2 nM
B5	10.6 nM
B6	66 nM
B7	11.4 nM
B8	58.6 nM
B9	203 nM
B10	16.2 nM
B11	5.99 nM
B12	2.04 nM
B13	104 nM
B14	200 nM
B15	2.52 nM
B16	1250 nM
B17	10.7 nM
B18	3.78 nM
B19	1070 nM
B20	7.94 nM
B21	451 nM
B22	11.9 nM

Binder	Kd
B23	1670 nM
B24	15.4 nM
B25	5.78 nM
B26	1380 nM
B27	607 nM
B28	624 nM
B29	> 2300 nM
B30	63.2 nM
B31	122 nM
B32	30.6 nM
B33	> 2300 nM
B34	848 nM
B35	7.89 nM
B36	957 nM
B37	13.5 nM
B38	6.86 nM
B39	8.44 nM
B40	58.5 nM
B41	983 nM
B42	28.9 nM
B43	9.03 nM
B44	1380 nM
